In patent US8455615B2, “Methods and compositions for prostate cancer immunotherapy” (Beth Israel Deaconess Medical Center, priority 2008, dated 2013):

Legend:
transgenic HHD mice = experiment: Immunization of HHD mice with SIM2 peptides, IFN-γ ELISPOT on splenocytes; assay type: in vivo, mouse; conditions: male HHD mice, s.c. peptide in IFA with HBVcore128-140 helper epitope, 10-12 days; P<0.01 for SIM2(87), P<0.001 for other epitopes
Description: These nine SIM2 peptides were then tested for their capacity to elicit in vivo CTL responses in transgenic HHD mice. Ten to 12-week old male HHD mice were injected subcutaneously at the basis of the tail with […] of each candidate peptide emulsified in 50 μl of Incomplete Freund's Adjuvant (IFA) and 50 μl PBS in the presence of 150 μg of the I-A^b restricted HBVcore128-140 T helper epitope ([…]; SEQ ID NO: 88). Ten to twelve days post-immunization, spleens were harvested and splenocytes tested for peptide-induced specific release of IFN-γ by ELISPOT. To perform the ELISPOT assays, 96-well Millipore IP plates were coated with 100 μl/well mouse IFN-γ specific capture mAb (AN18, Mabtech Inc., Mariemont, Ohio) at a concentration of 10 μg/ml in PBS overnight at 4° C. Wells were washed with PBS and saturated with RPMI/10% FCS for 1 hour at 37° C. A total of 2.5×10^5 splenocytes were seeded in each well in four replicates and 5×10^4 peptide-loaded (10 μg peptide/ml, for 2 hours at 37° C.) splenocytes pretreated with 50 μg/ml Mitomycin C for 1 hour were added to each well. Plates were incubated for 1-2 days at 37° C. in 5% CO2, washed 5 times with PBS, and then incubated with 1 μg/ml of biotinylated rat anti-mouse IFN-γ mAb (R4-6A2, Mabtech Inc.) for 24 hours at 4° C. or at room temperature for 2 hours. The wells were washed, and incubated with 100 μl of diluted alkaline phosphatase-conjugated streptavidin for 1 hour at room temperature. Spots were developed by adding […] substrates (5-bromo-4,3-indolyl phosphate and nitroblue tetrazolium) and counted using the ELRO4 AID ELISPOT Reader System (Autoimmun Diagnostika GmbH, Straf3berg, Germany).

HLA-A2.1 [1] = target: T1, HLA-A2.1 (Homo sapiens, UniProt P04439, D140Y/D185E/D98H/E176V/E277Q/G131W/G231S/I119V/I121R/I166T/I218V/L300P/L318F/N151K/N90K/P208A/P217A/Q86G/Q94H/R138H/R169H/T345S); experiment: Peptide-HLA-A2.1 dissociation rate on T2 cells with Brefeldin A (SIM2 peptides); assay type: cell-based; conditions: 50 μg/ml peptide, loss of A2.1 expression over time
T1 construct: stabilize MHC class I molecules from the T2 cell line; endogenous in cells; host or cells: T2 cells
Description: T2 cells were incubated overnight with 50 μg/ml of each candidate peptide at 37° C. in serum-free Iscove's Modified Dulbecco's Medium (IMDM). Cells were then incubated with Brefeldin A (Sigma, St. Louis, Mo.) at 10 μg/ml for 1 hour, washed, and incubated at 37° C. for 0, 2, 4 or 6 hours in the presence of Brefeldin A (50 ng/ml). Cells were then stained with BB7.2 mAb. For each time point, peptide-induced HLA-A2.1 expression was calculated as the difference of the mean fluorescence of peptide-loaded T2 cells and mean fluorescence of negative peptide-loaded T2 cells. The rate of dissociation is reflected by the loss of A2.1 expression over time.

HLA-A2.1 [2] = target: T1, HLA-A2.1; experiment: MHC stabilization assay on T2 cells (SIM2 peptides); assay type: cell-based; conditions: 50 μg peptide/250×10^3 cells/ml overnight at 37° C., BB7.2 mAb, flow cytometry
Description: Epitope candidates were evaluated for binding to HLA-A2.1 using an MHC stabilization assay. The assay is based on the ability of suitable peptides to stabilize MHC class I molecules from the T2 cell line. T2 cells lack a functional transporter associated with antigen presentation (TAP) and as a result accumulate empty, unstable class I molecules on the cell surface. These molecules on the cell surface dissociate rapidly unless they are stabilized by the addition of an appropriate binding peptide. In this assay, the flu M1 HLA-A*0201-binding peptide was used as a reference.
Briefly, T2 cells were cultured for 6 hours in serum-free IMDM (ATCC) prior to the addition of candidate peptides at a concentration of 50 μg/250×10^3 cells/ml and incubated overnight at 37° C. Cells were washed, and surface HLA-A2.1 molecules were stained with FITC mouse anti-human HLA-A2 mAb (clone BB7.2, Mouse IgG2b κ, BD Pharmingen) for 1 hour at 4° C. Cells were then washed three times with PBS and analyzed by flow cytometry. A negative control peptide (NEG, see FIG. 6A) and the flu matrix peptide M1 binder peptide (M1, see FIG. 6A) served as controls. The relative binding affinity of a given peptide was calculated as MFI(peptide)/MFI(negative peptide). Only relative binding affinities of 1.5 or higher were considered for further testing.

Substance	peptide-specific IFN-γ release by splenocytes (ELISPOT), immunogenicity (transgenic HHD mice)	peptide-HLA dissociation rate (weak or strong stabilizing epitope) (HLA-A2.1 [1])	binding to / stabilization of HLA-A2.1 molecules (HLA-A2.1 [2])
FLDSRVTEV (listed as Homo sapiens) [SIM2(244)]	higher numbers of splenocytes to release IFN-γ	strong stabilizing	–
KLIFLDSRV (listed as Homo sapiens) [SIM2(241)]	higher numbers of splenocytes to release IFN-γ	strong stabilizing	–
SIM2(25): SIM2 peptide that binds tightly to A2.1 but was not immunogenic; sequence not printed (KLLPLPSAI)	not immunogenic	–	bind tightly
SIM2(199): SIM2 peptide able to stabilize HLA-A2.1 molecules, not immunogenic; sequence not printed (SLYDSCYQI)	not immunogenic	weak stabilizing	bind tightly
SLDLKLIFL (listed as Homo sapiens) [SIM2(237)]	higher numbers of splenocytes to release IFN-γ	weak stabilizing	–
TLDGFVFVV (listed as Homo sapiens) [SIM2(87)]	higher numbers of splenocytes to release IFN-γ	strong stabilizing	–
YQIVGLVAV (listed as Homo sapiens) [SIM2(205)]	higher numbers of splenocytes to release IFN-γ	strong stabilizing	–
epitope 84: SIM2 peptide able to stabilize HLA-A2.1 molecules, weak stabilizing epitope; sequence not printed (LLQTLDGFV)	–	weak stabilizing	–
epitope 430: SIM2 peptide able to stabilize HLA-A2.1 molecules, weak stabilizing epitope; sequence not printed (LLYTPSYSL)	–	weak stabilizing	–
